Substitutions are numbered along the chain they refer to. Numbers in names are those of the source. Values belong to the binder of their own block, whether it stands above or below them.
Tests used:
Axl protein [1] = target: T1, Axl protein (human, UniProt P30530 26-451); experiment: ELISA, 1:3 dilution, pH 6.0 over pH 7.4
T1 construct: extracellular domain; also called human Axl; hAxl
T1 sequence (looked up): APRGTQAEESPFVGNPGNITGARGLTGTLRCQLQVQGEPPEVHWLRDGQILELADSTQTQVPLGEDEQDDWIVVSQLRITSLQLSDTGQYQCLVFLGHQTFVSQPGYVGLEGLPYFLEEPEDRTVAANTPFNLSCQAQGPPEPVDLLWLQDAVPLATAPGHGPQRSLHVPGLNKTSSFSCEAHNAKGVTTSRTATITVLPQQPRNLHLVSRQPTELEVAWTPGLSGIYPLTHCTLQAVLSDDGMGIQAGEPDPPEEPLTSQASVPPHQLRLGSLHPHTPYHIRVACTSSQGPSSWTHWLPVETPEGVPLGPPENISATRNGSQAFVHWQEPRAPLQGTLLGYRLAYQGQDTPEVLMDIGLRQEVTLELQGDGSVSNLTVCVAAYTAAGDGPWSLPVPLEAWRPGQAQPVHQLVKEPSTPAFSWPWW

Axl protein [2] = target: T1, Axl protein; experiment: ELISA, 1:9 dilution, pH 6.0 over pH 7.4

B1: HC-T030A (antibody, V domains shown)
VH: EVQLVQSGAEVKKPGATVKISCKVSGYSFAGHTMNWIRQPPGKGLEWIGLIKPSNGGTSYNQKFKGRVTISADKSISTAYLQWSSLKASDTAMYYCAHGHYESYFAMDYWGQGTLVTVSS
VL: DIQMTQSPSSLSASVGDRVTITCKASQDVSSAVAWYQQKPGQAPRLLIYWASTRHTGVPSRFSGSGSGTEFTLTISSLQPDDFATYYCQEHFSTPLTFGQGTKVEIK
Affinity ELISA CPE mutant ratio (1:3, pH 6.0/7.4) (Axl protein [1]): 1.29 ratio | Affinity ELISA CPE mutant ratio (1:9, pH 6.0/7.4) (Axl protein [2]): 1.76 ratio

B2: HC-E102A (antibody, V domains shown)
VH: B1 VH with A30T, E102A
VL: B1 VL
Affinity ELISA CPE mutant ratio (1:3, pH 6.0/7.4) (Axl protein [1]): 1.54 ratio | Affinity ELISA CPE mutant ratio (1:9, pH 6.0/7.4) (Axl protein [2]): 1.69 ratio

B3: HC-S103D (antibody, V domains shown)
VH: B1 VH with A30T, S103D
VL: B1 VL
Affinity ELISA CPE mutant ratio (1:3, pH 6.0/7.4) (Axl protein [1]): 4.24 ratio | Affinity ELISA CPE mutant ratio (1:9, pH 6.0/7.4) (Axl protein [2]): 2.23 ratio

B5: HC-H100R (antibody, V domains shown)
VH: B1 VH with A30T, H100R
VL: B1 VL
Affinity ELISA CPE mutant ratio (1:3, pH 6.0/7.4) (Axl protein [1]): 1.88 ratio | Affinity ELISA CPE mutant ratio (1:9, pH 6.0/7.4) (Axl protein [2]): 2.51 ratio

B6: HC-E102V (antibody, V domains shown)
VH: B1 VH with A30T, E102V
VL: B1 VL
Affinity ELISA CPE mutant ratio (1:3, pH 6.0/7.4) (Axl protein [1]): 1.93 ratio | Affinity ELISA CPE mutant ratio (1:9, pH 6.0/7.4) (Axl protein [2]): 2.51 ratio

B7: HC-F105T (antibody, V domains shown)
VH: B1 VH with A30T, F105T
VL: B1 VL
Affinity ELISA CPE mutant ratio (1:3, pH 6.0/7.4) (Axl protein [1]): 3.46 ratio | Affinity ELISA CPE mutant ratio (1:9, pH 6.0/7.4) (Axl protein [2]): 4.02 ratio

B8: HC-Y101N (antibody, V domains shown)
VH: B1 VH with A30T, Y101N
VL: B1 VL
Affinity ELISA CPE mutant ratio (1:3, pH 6.0/7.4) (Axl protein [1]): 2.17 ratio | Affinity ELISA CPE mutant ratio (1:9, pH 6.0/7.4) (Axl protein [2]): 2.91 ratio

B11: HC-E102F (antibody, V domains shown)
VH: B1 VH with A30T, E102F
VL: B1 VL
Affinity ELISA CPE mutant ratio (1:3, pH 6.0/7.4) (Axl protein [1]): 1.88 ratio | Affinity ELISA CPE mutant ratio (1:9, pH 6.0/7.4) (Axl protein [2]): 1.36 ratio

B12: HC-H100W (antibody, V domains shown)
VH: B1 VH with A30T, H100W
VL: B1 VL
Affinity ELISA CPE mutant ratio (1:3, pH 6.0/7.4) (Axl protein [1]): 4.94 ratio | Affinity ELISA CPE mutant ratio (1:9, pH 6.0/7.4) (Axl protein [2]): 5.91 ratio

B13: HC-S059T (antibody, V domains shown)
VH: B1 VH with A30T, S59T
VL: B1 VL
Affinity ELISA CPE mutant ratio (1:3, pH 6.0/7.4) (Axl protein [1]): 1.02 ratio | Affinity ELISA CPE mutant ratio (1:9, pH 6.0/7.4) (Axl protein [2]): 1.93 ratio

B14: HC-E102I (antibody, V domains shown)
VH: B1 VH with A30T, E102I
VL: B1 VL
Affinity ELISA CPE mutant ratio (1:3, pH 6.0/7.4) (Axl protein [1]): 2.02 ratio | Affinity ELISA CPE mutant ratio (1:9, pH 6.0/7.4) (Axl protein [2]): 1.7 ratio

B15: HC-N035I (antibody, V domains shown)
VH: B1 VH with A30T, N35I
VL: B1 VL
Affinity ELISA CPE mutant ratio (1:3, pH 6.0/7.4) (Axl protein [1]): 2.81 ratio | Affinity ELISA CPE mutant ratio (1:9, pH 6.0/7.4) (Axl protein [2]): 1.12 ratio

B16: HC-F105N (antibody, V domains shown)
VH: B1 VH with A30T, F105N
VL: B1 VL
Affinity ELISA CPE mutant ratio (1:3, pH 6.0/7.4) (Axl protein [1]): 2.36 ratio | Affinity ELISA CPE mutant ratio (1:9, pH 6.0/7.4) (Axl protein [2]): 2.64 ratio

B20: HC-W110H (antibody, V domains shown)
VH: B1 VH with A30T, W110H
VL: B1 VL
Affinity ELISA CPE mutant ratio (1:3, pH 6.0/7.4) (Axl protein [1]): 7.99 ratio | Affinity ELISA CPE mutant ratio (1:9, pH 6.0/7.4) (Axl protein [2]): 0.932 ratio

B27: HC-E102G (antibody, V domains shown)
VH: B1 VH with A30T, E102G
VL: B1 VL
Affinity ELISA CPE mutant ratio (1:3, pH 6.0/7.4) (Axl protein [1]): 1.8 ratio | Affinity ELISA CPE mutant ratio (1:9, pH 6.0/7.4) (Axl protein [2]): 2.68 ratio

B30: HC-S059I (antibody, V domains shown)
VH: B1 VH with A30T, S59I
VL: B1 VL
Affinity ELISA CPE mutant ratio (1:3, pH 6.0/7.4) (Axl protein [1]): 30.5 ratio | Affinity ELISA CPE mutant ratio (1:9, pH 6.0/7.4) (Axl protein [2]): 2.06 ratio

B31: HC-E102Y (antibody, V domains shown)
VH: B1 VH with A30T, E102Y
VL: B1 VL
Affinity ELISA CPE mutant ratio (1:3, pH 6.0/7.4) (Axl protein [1]): 2.61 ratio | Affinity ELISA CPE mutant ratio (1:9, pH 6.0/7.4) (Axl protein [2]): 1.99 ratio

B32: HC-H100E (antibody, V domains shown)
VH: B1 VH with A30T, H100E
VL: B1 VL
Affinity ELISA CPE mutant ratio (1:3, pH 6.0/7.4) (Axl protein [1]): 2.77 ratio | Affinity ELISA CPE mutant ratio (1:9, pH 6.0/7.4) (Axl protein [2]): 3.62 ratio

B34: HC-Y104P (antibody, V domains shown)
VH: B1 VH with A30T, Y104P
VL: B1 VL
Affinity ELISA CPE mutant ratio (1:3, pH 6.0/7.4) (Axl protein [1]): 2.54 ratio | Affinity ELISA CPE mutant ratio (1:9, pH 6.0/7.4) (Axl protein [2]): 2.42 ratio

Further lines, results first:

Affinity ELISA CPE mutant ratio (1:3, pH 6.0/7.4) (Axl protein [1]): 2.43 ratio | Affinity ELISA CPE mutant ratio (1:9, pH 6.0/7.4) (Axl protein [2]): 2.8 ratio
B4: HC-F105V (antibody, V domains shown)
VH: B1 VH with A30T, F105V
VL: B1 VL

Affinity ELISA CPE mutant ratio (1:3, pH 6.0/7.4) (Axl protein [1]): 1.84 ratio | Affinity ELISA CPE mutant ratio (1:9, pH 6.0/7.4) (Axl protein [2]): 1.74 ratio
B9: HC-Y104C (antibody, V domains shown)
VH: B1 VH with A30T, Y104C
VL: B1 VL

Affinity ELISA CPE mutant ratio (1:3, pH 6.0/7.4) (Axl protein [1]): 2.67 ratio | Affinity ELISA CPE mutant ratio (1:9, pH 6.0/7.4) (Axl protein [2]): 2.85 ratio
B10: HC-E102D (antibody, V domains shown)
VH: B1 VH with A30T, E102D
VL: B1 VL

Affinity ELISA CPE mutant ratio (1:3, pH 6.0/7.4) (Axl protein [1]): 0.912 ratio | Affinity ELISA CPE mutant ratio (1:9, pH 6.0/7.4) (Axl protein [2]): 2.26 ratio
B17: HC-S103Q (antibody, V domains shown)
VH: B1 VH with A30T, S103Q
VL: B1 VL

Affinity ELISA CPE mutant ratio (1:3, pH 6.0/7.4) (Axl protein [1]): 3.7 ratio | Affinity ELISA CPE mutant ratio (1:9, pH 6.0/7.4) (Axl protein [2]): 3.42 ratio
B18: HC-E102R (antibody, V domains shown)
VH: B1 VH with A30T, E102R
VL: B1 VL

Affinity ELISA CPE mutant ratio (1:3, pH 6.0/7.4) (Axl protein [1]): 1.52 ratio | Affinity ELISA CPE mutant ratio (1:9, pH 6.0/7.4) (Axl protein [2]): 1.57 ratio
B19: HC-E102N (antibody, V domains shown)
VH: B1 VH with A30T, E102N
VL: B1 VL

Affinity ELISA CPE mutant ratio (1:3, pH 6.0/7.4) (Axl protein [1]): 1.07 ratio | Affinity ELISA CPE mutant ratio (1:9, pH 6.0/7.4) (Axl protein [2]): 3.18 ratio
B21: HC-S103N (antibody, V domains shown)
VH: B1 VH with A30T, S103N
VL: B1 VL

Affinity ELISA CPE mutant ratio (1:3, pH 6.0/7.4) (Axl protein [1]): 1.78 ratio | Affinity ELISA CPE mutant ratio (1:9, pH 6.0/7.4) (Axl protein [2]): 1.81 ratio
B22: HC-S103M (antibody, V domains shown)
VH: B1 VH with A30T, S103M
VL: B1 VL

Affinity ELISA CPE mutant ratio (1:3, pH 6.0/7.4) (Axl protein [1]): 2.58 ratio | Affinity ELISA CPE mutant ratio (1:9, pH 6.0/7.4) (Axl protein [2]): 1.18 ratio
B23: HC-H100P (antibody, V domains shown)
VH: B1 VH with A30T, H100P
VL: B1 VL

Affinity ELISA CPE mutant ratio (1:3, pH 6.0/7.4) (Axl protein [1]): 3.9 ratio | Affinity ELISA CPE mutant ratio (1:9, pH 6.0/7.4) (Axl protein [2]): 4.54 ratio
B24: HC-F105S (antibody, V domains shown)
VH: B1 VH with A30T, F105S
VL: B1 VL

Affinity ELISA CPE mutant ratio (1:3, pH 6.0/7.4) (Axl protein [1]): 1.4 ratio | Affinity ELISA CPE mutant ratio (1:9, pH 6.0/7.4) (Axl protein [2]): 1.89 ratio
B25: HC-P053N (antibody, V domains shown)
VH: B1 VH with A30T, P53N
VL: B1 VL

Affinity ELISA CPE mutant ratio (1:3, pH 6.0/7.4) (Axl protein [1]): 3.27 ratio | Affinity ELISA CPE mutant ratio (1:9, pH 6.0/7.4) (Axl protein [2]): 2.7 ratio
B26: HC-E102L (antibody, V domains shown)
VH: B1 VH with A30T, E102L
VL: B1 VL

Affinity ELISA CPE mutant ratio (1:3, pH 6.0/7.4) (Axl protein [1]): 1.32 ratio | Affinity ELISA CPE mutant ratio (1:9, pH 6.0/7.4) (Axl protein [2]): 1.8 ratio
B28: HC-Y104E (antibody, V domains shown)
VH: B1 VH with A30T, Y104E
VL: B1 VL

Affinity ELISA CPE mutant ratio (1:3, pH 6.0/7.4) (Axl protein [1]): 2.42 ratio | Affinity ELISA CPE mutant ratio (1:9, pH 6.0/7.4) (Axl protein [2]): 3.09 ratio
B29: HC-H100D (antibody, V domains shown)
VH: B1 VH with A30T, H100D
VL: B1 VL

Affinity ELISA CPE mutant ratio (1:3, pH 6.0/7.4) (Axl protein [1]): 1.59 ratio | Affinity ELISA CPE mutant ratio (1:9, pH 6.0/7.4) (Axl protein [2]): 1 ratio
B33: HC-T033I (antibody, V domains shown)
VH: B1 VH with A30T, T33I
VL: B1 VL
